Reference: paper PMC12412097, “Structure and Nitrite Reductase Activity of the Di-iron Protein ScdA in Staphylococcus aureus” (Journal of the American Chemical Society, 2025)

Legend:
[1] = target: C-terminal domain-only (CTD, residues 64-224) variant of ScdA (S. aureus) (UniProt P72360); test: SEC; Superdex 75 Increase 10/300 GL, 20 mM Tris, 150 mM NaCl, pH 7.6; no reducing agent (WT also with MV radicals); oligomer peak at 9.2 mL, dimer peak at 10.9 mL
O=NO = test: purified protein; conditions: pH 7.6, methyl viologen cation radical as electron donor, 1 μM enzyme

C-terminal domain-only (CTD, residues 64-224) variant of ScdA (from UniProt P72360 64-224) (domain or fragment)
stoichiometry N [1]: 2

ScdA (Staphylococcus aureus subsp. aureus NCTC 8325)
Km (O=NO; partly oligomeric): 681 µM | kcat (O=NO; partly oligomeric): 32.3 min^–1

ScdA (Staphylococcus aureus subsp. aureus NCTC 8325; C191A/C30A/C31A)
Km (O=NO; predominantly dimeric): 822 µM | kcat (O=NO; predominantly dimeric): 94.3 min^–1
